# Laboratory results as given in the nanobody polyreactivity screen of Harvey et al. (2022).
# Test: yeast display, Sf9 membrane polyspecificity reagent, FACS + sequencing; frameworks hold sequencing errors
# Outline: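 Galactose-induced (36–48 hours) yeast carrying a synthetic nanobody display library were exposed to 10% biotinylated, detergent-solubilized Sf9 membrane reagent at 4 °C for 1 hour. FACS followed streptavidin microbead enrichment, using low and high (top ~1%) gates for expression (anti-HA) and reagent binding (streptavidin). Colony PCR, MiSeq 2 × 250 sequencing and CDR-length filtering followed. Labels for polyreactivity reflect the gate of origin.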
row,Sequence,polyreactivity (PSR sort gate)
1,QVQLVESGGGLVQAGGSLRLSCAASGSTFWFNAMGWYRQAPGKERELVAAISSTGSTNYADSVKGRFTISRDNSKNTVYLQMNSLKPEDTAVYYCATQEGPHKLDPRGYYWGQGTQVTVSS,low polyreactivity
2,QVQLEESGGGLVQAGGSLRLSCAASGSTFLLNAMGWYRQAPGKERELVAAITSSGGTNYADSVKGRFTISRDNAKNTVYLQMNSLKPEDTAVYNCYTRYSPGYQGTEVDYWGQGTQVTVSS,low polyreactivity
3,QVQLQESGGRLVQADGSLRLSCAASGSIFGYYYMGWYRQAPGKDRELVATINICGITNYADSVKGRFTISRDNAKNTVYLQMNSLKPDDTAVYYCAADEYAQRDLGYWGQGTQVTVSS,low polyreactivity
4,QVQLVESGGGLVQAGGSLRLSCAASGRTFAGNAMGWYRQAPGKERELVAAISQGGGSTYYADSVKGRFTFSRDNATNSVYLQMNRLNPDDTAVYYCAAEIPRRWASFATLWYDYWGQGTQVTVSS,low polyreactivity
5,QVQLVESGGGLVQAGGSLRLSCAASGYTSVGNAMGWYRPAPWKERELVAAITYNGGNTYYADSVKGRFRISRDNAKNTVYLQMNSLKPEDTAVSYCATDSQELASSRFDYWGQGTQVTVSS,low polyreactivity
6,KVQLVESGGGLVQAGGSLRLSCAASGRTFWYYAMGWYRLSPGKERELVAVITSVSSTYYADSVKGRFTISRDNAKNTVYLQMNSLKPEDTAVYYCAVGRTYRRYSAASYNYWGQGTQVTVSS,high polyreactivity
7,QVQLVESGGGLVQAGGSLRLSCAASGRIFYSNDLGWYRQAPGKERELVAAITSSGASTYYADSVKGRFTISRDNEKNTVYLQMNSLKPEDTAVYYCNVDIGVYAYESDYWGQGTQVTVSS,low polyreactivity
8,QLQLVESGACLVQAGGSLRLSCAASGRIFTSYSMGWYRHAPGKEREMVAAINRGADTYYADSVKGRFTISRDNAKNTVYLQMNSVKPEDNAVYYCNAADAVSDYPDFQIYDYWGQGTQVTVSS,low polyreactivity
9,QVQLVESGGGLVQEGGSLRLSCAASGSIFQYYALGWYRPAPGKERELVAAISSGGRTNYADSVKGRFTISRDNAKNSVYLQMNSLKPEDTAVYYCAAARYYYQVYRWEYDYWGQGTQVTVSS,high polyreactivity
10,QVQLVESGGGLVQAGGSLRLSCAASGFIFDWNTMGWYRQAPGKERELVAAITESSGSTYYADSVKGRFTISRDNAKNTVYLQMNSLKPEDTAVYYCAADFSYVYYLYDYWGQGTQVTVSS,low polyreactivity
11,QVQLVESGGGLVQAGGSLRLSCAASGLAFVFNAMGWYRQAPGKERELVAAISSGDDTNYADSVKGRFTISRDNAKNTVYLQMNSLKPEDTAVYNCAKTSDPIKRPYYYWGQGTQVTVSS,low polyreactivity
12,QVQLVESGGGLVQAGGSLRLSCAASGRTFRYYTMGWYRQAPGKEREFVAAISSTGGTYYADSVKGRFTISRDNAKNTVYLQMNSLKPEDTAVYYCAAETEDWNEYNYWGQGTQVTVSS,low polyreactivity
13,QVQLVESGGGLVQAGGSLRLSCAASGYIFHLYGMGWYRQAPGKERELVARISYRGGSTYYADSVKGRFTISRDNAMKTVYLQRNSLKPEETAVYYCAAYRRQHIIYNYWGQGTQVSVSS,high polyreactivity
14,QVQLVESGGGLVQAGGSLRLSFAASGRIFRSYAMGWYRQAPGKERELVAAITSGGSTYYADSVKGRFTISRDNAKNTVYLQLNSLKPEDTAVYYCNADYDVSSPRPAFDYWGQGTQVTVSS,low polyreactivity
15,QVQLVESGGGLVQAGGSLRLSCAASGRTSTIYTMGWYRQAPGKEREFVASISAGAGTYYADSVKGRFTISRDNAKNTVYLQMNSLKPEDTAVYYCSASVYWRSTRRHQMDYWGQGTQVTVSS,high polyreactivity
16,QVQLVESGGGLVQAGGSLRLSCAASGFTFRWYTMGWYRQAPGKERELFAAITGSGCTTYYADSVKGRFTISRDNAKNTVYLQMNSLKPEDTAVYYCAVVSGSLRTRYTYYYWGLGTQVTVSS,high polyreactivity
17,QVQLVESGGGLVQAGGSLRLSCAASGSTFYYYAMGWYRQAPGKERELVATISSGSSTNYADSVKGRFTISRDNAKNTVYLQMNCLKPEDTAVYYCAADRWYITLSIDATISYDYWGQGTQVTVSS,low polyreactivity
18,QVQLVESGGGLVQAGGSLRLSCAASGSIFVKNAMGWYRQAPGKERELVAAISRSGGSTYYADSVKGRFTISRDNAKYTVYLQMNSLKPEDTAVYYCNAYGSYWDFDEWGQGTQVTVSS,high polyreactivity
19,QVQLVESGGGLVQAGGSLRLSCAASGITFTWYGMGWYRQAPGKERELVAAISLTGARTYYADSVKGRFTISRDNAKNTVYLQMNSLKPEDTAVYYCNARPQGRGGTYLPRYDYWGQGTQVTVSS,high polyreactivity
20,QVQLVESGGGLVQAGGSLRLSCAASGSIFPGYSMGWCRQAPGKERELVAAISISGGDTYYADSVKGRFTISRDNAKNTGYFQMNSLKPEDTSVYHCNKEDDDREWFEYYWWYDYWGQGTQVTVTS,high polyreactivity
21,QVQLVESGGGLVQAGGSLRLSCAASGGILETNAMGWYRQAPGKERELVAAIDFSAGSTYYADSVKGRFTISRDNAKNTVYLQMNSLKPEDTAVYYCATRLGVLYDYWGQGTQVTVSS,low polyreactivity
22,QVQLVESGGGLVQAGGSLRLSCAASGFIFNLYAMGWYRQAPGKERELVAAISSGGGTSYADSVKGRFTISRDNAKNTDYLQMNSLKPEDTAVYYCAKRSGTYPFNFRFDYWGQGTQVTVSS,high polyreactivity

row,Sequence,polyreactivity (PSR sort gate)
1,QVQLVESGGGLVQAGGSLRLSCAASGRIFYLYTMGWYRQAPGKEREFSTYYADSVKGRFTISRDNAKNTVYLQMNSLKPEDTAVYYCNKGSDGFTTGEGDYWGQGTQVTVSS,low polyreactivity
2,QVQIVESGGGLVQAGGSLRLSCAASGSISVPYGMGWYRQAPGKERELVAAISGGSTNYADSVKGRFTISRDNAKNTVYLQMNSLKPEDTAVYFCAADWWAWYTRYDYWGQGSQVTVSS,low polyreactivity
3,QVQLVESGGGLVQAGCSLRLSCAASGITFVGYAMGWYRQAPGKERELVAAISSSGGSTYYADSVKGRFTISRDNAKNTVYLQMNSLKPEDTAVYYCAKRRWWQKSLYDYWGQGTQVTVSS,high polyreactivity
4,QVQLVESGGGLVQAGGSLRLSCAASGRTFLGYAMGWYRQAPGKERELVAAISSSGGSTYYADSVKGRVTISRDNAKNTVYFQMNCLKPEDTAVYYCAKRKRATGASGHGFGYWGQGTQVTVSS,high polyreactivity
5,QVQLVESGGGLVQAGGSLRLSCAASGFIFPLYAMGWYRQAPGKERELVAAITWRGDTTSYADSVKGRFTISRDNAKNTVYLQKNSLKPEDTAVDYCAAVRYPSGYDYWGQGTQVTVSS,high polyreactivity
6,QVQLVESGGGLVQAGGSLRLSCAASGSTFAYNAMGWYIQAPGKERELVAAISTSGGSTNYADSVKGRFTISRDMSKNTVYLQMNSLKPEVTAVYFCAARPKTPSITRYGYWGQGTHVTVSS,high polyreactivity
7,QVQLVESGGGLVQSGGSLRLSCAASGLIFYDNMGWYIQAPGKERELVAAISSSGGSTSYADSVKGRFTISRDNAKNTVYLQMNSLKPEDTAVYYCAADSYPAYLGFVGFDYWGQGTQVTVSS,low polyreactivity
8,QVQLVESGGGLVQAGGSLRLSCAASGRTFVDYDMGWYRQAPGKERELVADINSGGSTYYADSVKGRFTISRDNAKNTVYLQMNSLKPEDTAVYYCAARPYYWGQGTQVTVSS,high polyreactivity
9,QVQLVESGGGLVQAGGSLRLSCAASGFIFYDYAMGWYRQAPGKERELVAAISSGGSTNYADSVKGRFTISRDNAKNTVYLQMNSLIPEDTEVYYCAADDRSYATWKRDYDYWGQGTQVTVSS,low polyreactivity
10,QVQLVESGGGLVQAGGSLRLSCAASGSTFGVNAMGWYRQAPGKERELVAAITRRGSSTYYADSVKGRFTNSRDNAKNTVYLQMNSLKPEDTAVYFCAADLHYRPGFRYGYWGQGTQVTVSS,high polyreactivity
11,QVQLLESGGGLVQAGGSLRLSCAASGFIFSKYAMGWYRQAPGKERELVAGINRSGGSTYYADSVKGRFTISRDNAKNTVYFQMNSLKPEDTAVYYCAAPFGVQSRWYGQSGYWGQGTQVTVSS,high polyreactivity
12,QVQLVESGGGLVQAGGSLRLSCAASGNIFDIYAMGWYRQAPGKERELVAAITSGVRTYYADSVKGLFTISRDNAKNTVYLQMNSVKPEDTAVYYCATPSPHVGLKWEYDYWGQGTQVTVSS,low polyreactivity
13,QVQLVESGGGLVQAGGSLRLSCAASGLTFVYYTMGWYRQAPGKERELVAGINSGGSTYYADSVKGRFTISRDNAKNTVFLQMNSLKPEDTAVYYCAAVQRGYRRFRRIYDYWGQGTQVTVSS,high polyreactivity
14,QVQLQESGGGLVQAGGSLRLSCAASGYISHADEMGWYRQAPGKEHELVASISNGGSTNYADSVKARCTISRDNAKTTVYLQMNSLKSEATAVYFCAAWTGQVDIHYYWGQGTQVTVSS,low polyreactivity
15,QVQLVESGGGLVQAGGSLRLSCAASGSTFSRYAMGWYRQAPGKERELVAAISWSGGRTNYADSVKGRFTISRDNAKNTVYLQMNSLKPEDTAVYYCNAPFRHRYRVDYWGQGTQVTVSS,high polyreactivity
16,QVQLVESGGGLVQAGGILRLSCAASGRTFYINGMGWYRQAPGKEREFVASITWRGGRTYYADSVKGRFTISRDNAKNTVYLQMNSLKPEDTAVYYCIAVGLGGRAPSRWYTHYYCGQGTQVTVSS,high polyreactivity
17,QVQLVESSAGLVQAGGSLRLSCDASGSTFFYYAMGWYRQAPGKERELVAAISLSDGNTYYADSVKGRFTISRDNAKNTVYLQMNSLKPEDTAVYYCNRVGSQSMKYWGQGTQVTVSS,low polyreactivity
18,QVQLVESGGGLVQAGGSLRLSCAASGRTIDSNAMGWYRQAPGKERELVATIDRGGSTNYADSVKGRFTISRDNAKNTVYLQMNSLKPEDTAVYYCATRGHYHAFYYTYPRYDSWGQGTQVTVSS,low polyreactivity
19,QVQLVESGGGLVQAGGSLRLSCAASGSTFGNNAMGWYRQAPGKERELVATIDDTTVSTNYADSVKGRFTISRDNAKNTVYLQMNSLKPEDTAVYYCAADDVDGSPYDYWGQGTQVTVSS,low polyreactivity
20,QVQLVESGGGLVQAGGSLRLSCAASGRILHFYAMGWYRQAPGKERELVAAISKSGGSTYYADSVKGRFTISRDNAKNTVYLQMNSLKPEDTAVYYCAASFIRRGSYSTTSAPGRYYWGQGTQVTVSS,high polyreactivity
21,QVQLVESGGGLVQAGGSLRLSCAASGFIFYSNAMGWYRQAPGKERELVATITGDGGTTYYADSVKGRFTISRDNAKNTVYLQMNSLKPEDTAVYYCAKDYIYRGYYTDFRYEDYDYWGQGTQVTVSS,low polyreactivity
